Experimental data reported in article PMC7956722 (Molecules, 2021).
Read-outs that look alike come from different tables or passages of the source. Non-standard residues stand in square brackets, D forms with d. Residues, ends and D or L forms follow the SMILES beside them. dPhe(4-Cl) = N[C@H](Cc1ccc(Cl)cc1)C(=O)O; d2Nal = N[C@H](Cc1ccc2ccccc2c1)C(=O)O; dCit = NC(=O)NCCC[C@@H](N)C(=O)O; d3Pal = N[C@H](Cc1cccnc1)C(=O)O

Tests used:
[1] = test system: LHRH-receptor-positive models of human ovarian, mammary, endometrial, and prostatic cancers; details: cited from earlier work
[2] = test system: bladder cancer in nude mice; details: Szepeshazi et al., cited from earlier work
From the text: (§1) Our findings are in agreement with the results of Bahk et al. (2008). […] However, there is no information about the role of peptide receptors in bladder carcinogenesis. The signaling pathways have the potential to be an important area of bladder cancer research, leading to the development of effective therapeutic approaches.

various human cancers = details: trials completed or terminated; cited from earlier work
From the text: as §1

[3] = target: T1, LHRH receptors (membrane receptors of human bladder cancer cells) (Homo sapiens, UniProt P30968); assay: Ligand competition assay: displacement of [125I][D-Trp6]LHRH by unlabeled peptides; format: binding; details: for displacement of [125I][D-Trp6]LHRH by unrelated peptides: membrane fractions of human bladder cancer specimens, increasing concentrations, mean of duplicate or triplicate determinations
T1 construct: membrane homogenates of bladder cancer specimens containing 60–150 µg protein were incubated in duplicate; from tissue; host or cells: surgically resected human bladder cancer (transitional cell carcinoma) tissue, crude membrane fractions
T1 sequence (P30968 1-328): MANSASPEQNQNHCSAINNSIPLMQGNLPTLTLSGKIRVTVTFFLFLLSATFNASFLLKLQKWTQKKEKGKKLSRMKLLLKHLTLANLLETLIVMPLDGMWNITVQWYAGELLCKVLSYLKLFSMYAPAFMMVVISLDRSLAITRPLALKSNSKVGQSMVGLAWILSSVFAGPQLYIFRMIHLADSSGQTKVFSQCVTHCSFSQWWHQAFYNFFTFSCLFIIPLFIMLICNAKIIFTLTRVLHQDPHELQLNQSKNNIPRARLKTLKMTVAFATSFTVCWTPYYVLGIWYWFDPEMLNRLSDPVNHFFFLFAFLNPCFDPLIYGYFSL
Protocol: Analysis of the typical displacement of radiolabeled [D-Trp^6] […] Biochemical parameters essential to establish the identity of specific binding sites were also determined.
Each point represents mean of duplicate or triplicate determinations.
The assay was performed as described earlier. […] At the end of the incubation, 125 µL aliquots of suspension were transferred onto the top of 1 mL of ice-cold binding buffer containing 1.5% BSA in microcentrifuge tubes. The tubes were centrifuged at 12,000× g for 3 min at 4 °C. Supernatants were aspirated and the pellet was counted in a gamma counter. Protein concentration was determined by the method of Bradford using a Bio-Rad protein assay kit (Bio-Rad Laboratories, Hercules, CA, USA). The final binding affinities were expressed as IC50 values and were calculated by using the LIGAND-PC computerized curve-fitting program of Munson and Rodbard.

[4] = test system: metastatic bladder cancer; details: first-line therapy, cisplatin-based chemotherapy; cited from earlier work
From the text: More than 90% of urothelial tumors originate from the urinary bladder, 8% from the renal pelvis, and 2% from the ureter and urethra. Histologically, the majority (around 90%) of bladder cancer is described as the type of TCC and the rest are squamous cell carcinoma, adenocarcinoma, and rarely, small cell carcinoma. Despite advancements in surgical techniques and chemotherapy, the overall survival in metastatic bladder cancer has not improved over the last 20 years. The first-line therapy is cisplatin-based chemotherapy with the response rate of approximately 50% [[4],[31] ...

bladder carcinogenesis = test system: bladder carcinogenesis; set-up: method as in PMID 8551710; details: cited from earlier work
From the text: The effects of the androgen regulation system and LHRH agonist on bladder carcinogenesis have been investigated in animals [10].

[125I][D-Trp6]LHRH [5] = target: T2, [125I][D-Trp6]LHRH (Homo sapiens, pGlu1, D-Trp6, C-terminal amide, 125I); assay: radioligand competition (patient 8)
T2 chain: QHWSYWLRPG

[125I][D-Trp6]LHRH [6] = target: T2, [125I][D-Trp6]LHRH; assay: radioligand competition (patient 22)
[125I][D-Trp6]LHRH [7] = target: T2, [125I][D-Trp6]LHRH; assay: radioligand competition (patient 6)
[125I][D-Trp6]LHRH [8] = target: T2, [125I][D-Trp6]LHRH; assay: radioligand competition (patient 7)
[125I][D-Trp6]LHRH [9] = target: T2, [125I][D-Trp6]LHRH; assay: radioligand competition (patient 19)
[125I][D-Trp6]LHRH [10] = target: T2, [125I][D-Trp6]LHRH; assay: radioligand competition (patient 12)
[125I][D-Trp6]LHRH [11] = target: T2, [125I][D-Trp6]LHRH; assay: radioligand competition (patient 3)
[125I][D-Trp6]LHRH [12] = target: T2, [125I][D-Trp6]LHRH; assay: radioligand competition (patient 18)
AN-152 = target: T3, AN-152 (Homo sapiens, pGlu1, D-Lys6 linked through glutaric acid spacer to doxorubicin, C-terminal amide); assay: radioligand competition
T3 chain: QHWSYKLRPG

[D-Lys6]LHRH = target: T4, [D-Lys6]LHRH (Homo sapiens, pGlu1, D-Lys6, C-terminal amide); assay: radioligand competition
T4 chain: QHWSYKLRPG

[125I][D-Trp6]LHRH [13] = target: T2, [125I][D-Trp6]LHRH; assay: radioligand competition (patient 14)
[125I][D-Trp6]LHRH [14] = target: T2, [125I][D-Trp6]LHRH; assay: radioligand competition (patient 10)
[125I][D-Trp6]LHRH [15] = target: T2, [125I][D-Trp6]LHRH; assay: radioligand competition, Scatchard (mean of 10 bladder cancer specimens)

## COc1cccc2c1C(=O)c1c(O)c3c(c(O)c1C2=O)C[C@@](O)(C(=O)COC(=O)CCCC(=O)NCCCC[C@@H](NC(=O)[C@H](Cc1ccc(O)cc1)NC(=O)[C@H](CO)NC(=O)[C@H](Cc1c[nH]c2ccccc12)NC(=O)[C@H](Cc1c[nH]cn1)NC(=O)[C@@H]1CCC(=O)N1)C(=O)N[C@@H](CC(C)C)C(=O)N[C@@H](CCCNC(=N)N)C(=O)N1CCC[C@H]1C(=O)NCC(N)=O)C[C@@H]3O[C@H]1C[C@H](N)[C@H](O)[C@H](C)O1 [AN-152]
[1]; human ovarian, mammary, endometrial, prostatic cancers xenografted into nude mice
  inhibition of tumor growth in vivo versus respective radicals: much more effective in vivo than their respective radicals in inhibiting tumor growth
[1]; nude mice
  toxicity versus respective radicals: less toxic
[2]; bladder cancer in nude mice
  effect compared with DOX: greater effects than DOX
[2]; nude mice
  growth inhibition of bladder cancer: inhibits powerfully the growth of the bladder cancer in nude mice
  toxicity compared with DOX: lesser toxicity
Various human cancers
  outcome of clinical trials: some of these studies did not achieve their primary endpoint
[3]; compared with free peptide carrier [D-Lys6]LHRH, human bladder cancer membranes
  binding affinity relative to free carrier [D-Lys6]LHRH (in words): only slightly lower binding affinity to specific LHRH receptors than the free peptide carrier
[3]; displacement of [125I][D-Trp6]LHRH, human bladder cancer membranes
  binding to LHRH receptors (in words): could effectively bind to LHRH receptors at low nanomolar concentration

## CC(=O)N[C@H](Cc1ccc2ccccc2c1)C(=O)N[C@H](Cc1ccc(Cl)cc1)C(=O)N[C@H](Cc1cccnc1)C(=O)N[C@@H](CO)C(=O)N[C@@H](Cc1ccc(O)cc1)C(=O)N[C@H](CCCNC(N)=O)C(=O)N[C@@H](CC(C)C)C(=O)N[C@@H](CCCNC(=N)N)C(=O)N1CCC[C@H]1C(=O)N[C@H](C)C(N)=O [Cetrorelix] (Ac-[d2Nal][dPhe(4-Cl)][d3Pal]SY[dCit]LRP[dA]-NH2)
[3]
  IC50: 0.86 nM

## CC(C)C[C@H](NC(=O)[C@@H](CCCCN)NC(=O)[C@H](Cc1ccc(O)cc1)NC(=O)[C@H](CO)NC(=O)[C@H](Cc1c[nH]c2ccccc12)NC(=O)[C@H](Cc1cnc[nH]1)NC(=O)[C@@H]1CCC(=O)N1)C(=O)N[C@@H](CCCNC(=N)N)C(=O)N1CCC[C@H]1C(=O)NCC(N)=O [[D-Lys^6]LHRH]
[3]; read-out: Receptor binding potency (IC50)
  IC50: 0.98 nM

## N.N.[Cl][Pt][Cl] [cisplatin]
[4]
  response rate: approximately 50%

## CC(C)C(=O)Nc1ccc([N+](=O)[O-])c(C(F)(F)F)c1 [flutamide]
Bladder carcinogenesis
  effect on bladder carcinogenesis: suppressed the LHRH-induced promotion of carcinogenesis

## epidermal growth factor: unrelated peptide
[3]
  displacement of [125I][D-Trp6]LHRH by unrelated peptides: did not displace the radioligand

## growth hormone-releasing hormone (GHRH): unrelated peptide
[3]
  displacement of [125I][D-Trp6]LHRH by unrelated peptides: did not displace the radioligand

## human growth hormone (hGH): unrelated peptide
[3]
  displacement of [125I][D-Trp6]LHRH by unrelated peptides: did not displace the radioligand

## somatostatin: unrelated peptide
[3]
  displacement of [125I][D-Trp6]LHRH by unrelated peptides: did not displace the radioligand

## vasoactive intestinal peptide (VIP): unrelated peptide
[3]
  displacement of [125I][D-Trp6]LHRH by unrelated peptides: did not displace the radioligand

B1: LHRH receptor type I (protein)
chain: T1 sequence (P30968 1-328)
[125I][D-Trp6]LHRH [5]
  Kd: 6.26 nM
[125I][D-Trp6]LHRH [6]
  Kd: 4.31 nM
[125I][D-Trp6]LHRH [7]
  Kd: 6.85 nM
[125I][D-Trp6]LHRH [8]
  Kd: 4.94 nM
[125I][D-Trp6]LHRH [9]
  Kd: 3.83 nM
[125I][D-Trp6]LHRH [10]
  Kd: 3.61 nM
[125I][D-Trp6]LHRH [11]
  Kd: 5.76 nM
[125I][D-Trp6]LHRH [12]
  Kd: 4.38 nM
AN-152
  IC50: 1.39 nM
[D-Lys6]LHRH
  IC50: 0.98 nM
[125I][D-Trp6]LHRH [13]
  Kd: 4.92 nM
[125I][D-Trp6]LHRH [14]
  Kd: 5.02 nM
[125I][D-Trp6]LHRH [15]
  Kd: 4.98 nM
